The target in the series is dFMRP (dFmr1-PD) (UniProt Q9NFU0 1-684). The experiment in a line: EMSA.
dFMRP (dFmr1-PD), sequence (Q9NFU0 whole entry): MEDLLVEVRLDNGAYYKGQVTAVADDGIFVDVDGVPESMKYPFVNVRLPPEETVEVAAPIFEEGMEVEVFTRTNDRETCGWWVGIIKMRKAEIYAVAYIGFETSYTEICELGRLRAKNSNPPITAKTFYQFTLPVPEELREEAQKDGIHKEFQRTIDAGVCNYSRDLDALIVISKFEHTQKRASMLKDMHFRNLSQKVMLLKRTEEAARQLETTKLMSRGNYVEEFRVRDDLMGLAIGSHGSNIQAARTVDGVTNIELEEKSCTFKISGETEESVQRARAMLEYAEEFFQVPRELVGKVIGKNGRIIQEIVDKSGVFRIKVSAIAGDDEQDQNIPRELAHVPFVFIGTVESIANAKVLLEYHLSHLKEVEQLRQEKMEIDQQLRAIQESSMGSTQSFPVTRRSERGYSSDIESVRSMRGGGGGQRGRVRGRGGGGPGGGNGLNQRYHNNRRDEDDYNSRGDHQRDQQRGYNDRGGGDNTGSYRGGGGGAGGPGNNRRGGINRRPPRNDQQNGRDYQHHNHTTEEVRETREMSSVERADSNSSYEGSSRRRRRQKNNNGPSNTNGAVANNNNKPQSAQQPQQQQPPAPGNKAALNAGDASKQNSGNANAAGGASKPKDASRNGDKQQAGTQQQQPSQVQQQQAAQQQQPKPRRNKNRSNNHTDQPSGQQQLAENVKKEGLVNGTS

For the molecule AAAAAAAAAAAAAA (ssRNA) [A14 control RNA], the binding result was “no binding”.

The values are drawn from article PMC11352701.
